Source: patent US20160009800A1

Experiments:
[1] = biological target: mouse insulin receptor complexed with human insulin (mouse; human) (UniProt P15208); assay: FACS, serum-starved CHO-K1 cells expressing mouse INSR, with insulin
[2] = biological target: mouse insulin receptor (mouse) (UniProt P15208); assay: FACS, serum-starved CHO-K1 cells expressing mouse INSR, no insulin
[3] = biological target: human insulin receptor complexed with human insulin (human) (UniProt P06213); assay: FACS, serum-starved CHO-K1 cells expressing human INSR, with insulin
[4] = biological target: human insulin receptor complexed with human insulin (human) (UniProt P06213); assay: FACS competition on hINSR8-CHOK1 cells with insulin; competitor Ab019
[5] = biological target: human insulin receptor complexed with human insulin (human) (UniProt P06213); assay: FACS, CHO-K1 human INSR cells, signal with insulin divided by signal without insulin
[6] = biological target: human insulin receptor complexed with human insulin (human) (UniProt P06213); assay: FACS, serum-starved CHO-K1 cells expressing human INSR, with insulin [cont'd]
[7] = biological target: human insulin receptor complexed with human insulin (human) (UniProt P06213); assay: FACS, CHO-K1 human INSR cells, signal with insulin divided by signal without insulin [cont'd]
[8] = biological target: mouse insulin receptor (mouse) (UniProt P15208); assay: FACS, serum-starved CHO-K1 cells expressing mouse INSR, no insulin [cont'd]
[9] = biological target: mouse insulin receptor complexed with human insulin (mouse; human) (UniProt P15208); assay: FACS, CHO-K1 mouse INSR cells, signal with insulin divided by signal without insulin
[10] = biological target: human insulin receptor (human) (UniProt P06213); assay: FACS, serum-starved CHO-K1 cells expressing human INSR, no insulin

Binder | FACS area under log transformed data MFI [3] | FACS area under log transformed data MFI ratio (+insulin/-insulin) [5] | FACS area under log transformed data MFI [6] | FACS area under log transformed data MFI ratio (+insulin/-insulin) [7] | further results
Ab059 (antibody, IgG2, V domains shown) VH: EVQLVQSGAEVKKPGSSVKVSCKASGGTFSSYAISWVRQAPGQGLEWMGRIIPIFGIANYAQKFQGRVTITADKSTSTAYMELSSLRSEDTAVYYCAREPDYDFWNDAFDIWGQGTMVTVSS VL: QAVLTQPASLSASPGASASLTCTLRSDISVGVYRISWYQQKPGSPPQYLLSYNSDSNNHQGSGVPSRFSGSKDASANAGILLISGLQSEDEADYYCMIWHINAWVFGGGTKVTVL | – | – | – | – | FACS area under log transformed data MFI [1]: 13; FACS area under log transformed data MFI [2]: 14
Ab061 (antibody, IgG2, V domains shown) VH: QMQLVQSGAEVKKTGESLKISCQGYGYRFTDNWIGWVRQMPGRGLEWMGIIYPGDSETRYSPSFQGQVTISADKSISTAYLEWSSLKASDTAMYYCARHAPLAVAGMALGDWGQGTLVTVSS VL: QTVVTQEPSFSVSPGGTVTLTCGLSSGSVSTGYSPGWYQQTPGQAPRTLVYNTNTRSSGVPDRFSGSILGNKAALTITGAQADDESDYYCALYMGSGTYVFGGGTKLTVL | 59 | 0.29 | – | – | percent competition [4]: < 30%
Ab065 (antibody, IgG2, V domains shown) VH: QVQLVQSGAEVKKPGESLKISCKGSGYSFTSYWIGWVRQMPGKGLEWMGIIYPGDSDTRYSPSFQGQVTISADKSISTAYLQWSSLKASDTAMYYCARHELGIDYWGQGTLVTVSS VL: QAGLTQPPSVSKGLRQTATLTCTGDNNIVGDQGAAWLQQHQGHPPKLLSFRNNSRPSGISERFSASRSRNTASLTITRLQPEDAADYYCSAWDSFLSAWVFGGGTKLTVL | 57 | 0.28 | – | – | –
Ab069 (antibody, IgG2, V domains shown) VH: EVQLVQSGAEVKKPGESLKISCKGSGYSFTSYWIGWVRQMPGKGLEWMGIIYPGDSDTRYSPSFQGQVTISADKSISIAYLQWSSLKASDTAMYYCARLGRGYYGMDVWGQGTTVTVSS VL: SSELTQDPAVSVALGQTVRITCQGDSLRSYYASWYQQKPGQAPVLVIYGKNNRPSGIPDRFSGSRSGNTASLTITGAQAEDEADYYCNSRDSSGNHVVFGGGTKVTVL | 146 | 0.41 | – | – | –
Ab070 (antibody, IgG2, V domains shown) VH: EVQLVQSGAEVKKPGESLKISCKGSGYSFTSYWIGWVRQMPGKGLEWMGIIYPGDSDTRYSPSFQGQVTISADKSISTSYLQWSSLRASDTAMYYCARLGSGWYGNDYWGQGTLVTVSS VL: SSELTQDPAVSVALGQTVRITCQGDSLRSYYTSWYQQKPGQAPVLVIFGKNNRPSGIPDRFSGSSSGNTASLTITGAQAEDEADYYCNSRDSSGNYAVFGGGTQLTVL | – | – | 150 | 0.53 | –
Ab071 (antibody, IgG2, V domains shown) VH: EVQLVQSGAEVKKPGESLKISCKGSGYSFTSYWIGWVRQMPGKGLEWMGIIYPGDSDTRYSPSFQGQVTISADKSISTAYLQWSSLKASDTAMYYCARWDAGYSPWGQGTLVTVSS VL: SSELTQDPAVSVALGQTVRITCQGDSLRSYYASWYQQKPGQAPVLVFYGKNNRPSGIPGRFSGSKSGNTASLTITGAQAEDEADYYCNSRDSSGNHWVFGGGTKLTVL | – | – | 194 | 0.4 | –
Ab072 (antibody, IgG2, V domains shown) VH: QMQLVQSGAEVKKPGESLKISCKGSGYSFTGYWIGWVRQMPGKGLEWMGIIYPGDSDTRYSPSFQGQVTISADKSISTAYLQWSSLKVSDTAMYYCGRISTPYAFDIWGQGTMVTVSS VL: SYVLTQPPSASGTPGQRVTISCSGSNSNIGSNFVTWYQQLPGAAPKLLIYTNSQRPSGVPDRFSGSRSGTSASLAISGLQSEDEADYFCAAWDDSLNGPVFGGGTQLTVL | – | – | 84 | 0.37 | –
Ab078 (antibody, IgG2, V domains shown) VH: QVQLVQSGGGLVQPGGSLRLSCAASGFTFSSYSMNWVRQAPGKGLEWVSSISSSSSYIYYADSVKGRFTISRDNAKNSLYLQMNSLRAEDTAVYYCARDQGGELLGFTGYFDYWGQGTLVTVSS VL: DIQLTQSPSSLSASVGDRVTITCRASQGISSALAWYQQKPGKAPKVLIYDASSLERGVPSRFSGSGTGTDFTLTISSLQPEDFASYYCHQFNSYPDTFGQGTRLEIK | – | – | – | – | FACS area under log transformed data MFI [8]: 12
Ab082 (antibody, IgG2, V domains shown) VH: QMQLVQSGAEVKKPGESLKISCKGSGYSFTSYWIGWVRQMPGKGLEWMGIIYPGDSDTRYSPSFQGQVTISADKSISTAYLQWSSLKASDTAMYYCARWGPDAFDIWGQGTMVTVSS VL: EIVLTQSPDFQSVTPKETVTISCRASQNIGVSLHWYQQKPDQSPKVLIKYASQSLSGVPSRFSGTGSGTDFTLTIKSLEAEDAATYYCLQTSSLPWTFGQGTKVEIK | – | – | 236 | 0.59 | –
Ab050 (antibody, IgG2, V domains shown) VH: QVQLVQSGAELKKPGATVKISCKVSGYTFGDYHMHWVKQAPGKGLEWMGLVDPENGETEYGEKFQDRITMAADTSTDTAYMELSSLRSEDTAVYYCARSPSSSGYFRVDGFDIWGQGTMVTVSS VL: NFMLTQPHSVSESPGKTVSISCTGSSGSIGSNYVQWYQQRPGSAPTTVIYEDNQRPSGVPDRFSGSIDSSSNSASLTISGLKTEDEADYYCQSYYNSNVVFGGGTKLTVL | 81 | 0.32 | – | – | –
Ab052 (antibody, IgG2, V domains shown) VH: EVQLVQSGAEVKKPGESLKISCKGSGYRFTSYWIGWVRQMPGRGLEWMGIIYPGDSDTRYSPSFQGQVTISVDKSISTAYLQWSSLKASDTAMYYCATHHASGRGLDPWGQGTLVTVSS VL: QAMLTQPASLSASPGASASLTCTLRSGINVVAYNIYWYRQKSGSPPQSVLRYKSDSDSERDSGVPSRFSGSKDVSANAGILLISGLQSEDEADYYCLIWHNSAWVFGGGTQLTVL | 134 | 0.3 | – | – | –
Ab056 (antibody, IgG2, V domains shown) VH: QVQLVQSGSEVKKPGASVKVSCKASGYTFTNSYMHWVRQAPGQGLEWMGIINPSAGTSYAQKFQGRVTMTRDTSTSTVYMELSSLKSEDTAVYYCARDVGWLPGDYWGQGTLVTVSS VL: QSALTQPASVSESPGQSITISCTGTGSDIGTYNLVSWYQHHPGKAPKLMIYEVTKRPSGVSNRFSGSKSGNTASLTISGLQAEDEADYYCSSYTSSSTLYVFGTGTKLTVL | – | – | – | – | FACS area under log transformed data MFI [1]: 41; FACS area under log transformed data MFI ratio (+insulin/-insulin) [9]: 1.98; FACS area under log transformed data MFI [2]: 21
Ab057 (antibody, IgG2, V domains shown) VH: QMQLVQSGAEVKKPGESLKISCKGYGYRFSDNWIGWVRQMPGRGLEWMGIIYPGDSETRYSPSFQGQVTISADKSISTAYLQWSSLKASDTAMYYCARHAPLAVAGMALGDWGQGTLVTVSS VL: QTVVTQEPSFSVSPGGTVTLTCGLTSGSVSTSYYPSWYQQTPGQAPRMLVHSTSTRYSGVPDRFSGSILGNKAALTITGAQADDESDYYCALYMGGGIYVFGGGTQLTVL | 87 | 0.56 | – | – | FACS area under log transformed data MFI [10]: 155
